The experiment concerns the target T1, recombinant Phi29 polymerase-SpyTag fusion protein (Bacillus phage phi29 (Bacteriophage …, UniProt P03680 2-575)).
T1 construct: Expressed in E. coli with an amino terminal polyhistidine/SUMO tag (N-His/SUMO); The tag was cleaved with ULP1; also called N-His/SUMO Phi29 polymerase-SpyTag fusion protein; Phi29 with K-linker-SpyTag003
T1 sequence: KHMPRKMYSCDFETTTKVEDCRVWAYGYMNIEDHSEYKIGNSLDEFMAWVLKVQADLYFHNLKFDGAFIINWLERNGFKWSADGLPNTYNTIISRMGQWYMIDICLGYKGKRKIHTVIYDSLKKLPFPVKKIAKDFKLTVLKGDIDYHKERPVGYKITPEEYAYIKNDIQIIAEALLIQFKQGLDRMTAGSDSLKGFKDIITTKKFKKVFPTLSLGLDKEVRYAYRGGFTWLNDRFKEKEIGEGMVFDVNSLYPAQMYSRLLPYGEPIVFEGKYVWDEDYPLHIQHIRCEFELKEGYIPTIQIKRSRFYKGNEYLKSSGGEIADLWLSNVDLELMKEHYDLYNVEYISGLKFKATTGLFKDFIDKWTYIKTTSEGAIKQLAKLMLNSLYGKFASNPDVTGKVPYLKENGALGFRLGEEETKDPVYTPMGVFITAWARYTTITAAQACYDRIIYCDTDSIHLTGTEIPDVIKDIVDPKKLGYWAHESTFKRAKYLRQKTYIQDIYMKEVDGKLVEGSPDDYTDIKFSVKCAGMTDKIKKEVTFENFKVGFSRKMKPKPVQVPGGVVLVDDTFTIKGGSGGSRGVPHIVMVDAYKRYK
Description: co-expression in E. coli, nickel purification, SDS-PAGE (covalent SpyCatcher:SpyTag coupling). From the text: N-His/SUMO recombinant Phi29 polymerase-SpyCatcher fusion protein and recombinant Phi29 polymerase-SpyTag fusion protein were expressed as described in Example 3. The soluble fraction was collected and run on a nickel column. The SDS-PAGE for the various fractions are shown in FIG. 9A (SpyCatcher) and FIG. 9B (SpyTag). The SUMO tag was cleaved using a recombinant Ubl-specific protease 1 (ULP1). Fractions were collected for pre- and post-cleavage of the N-His/SUMO tag, as shown in FIG. 10A (SpyCatcher) and FIG. 10B (SpyTag). Each elution fraction was collected as 1 mL aliquots using an 80-100% gradient of 1 M NaCl.
When the Phi29 polymerase-SpyCatcher fusion protein, the Phi29 polymerase-SpyTag fusion protein were co-expressed in E. coli, a dimer of fusion proteins (e.g., a dimer of Phi29 polymerase-SpyCatcher:Phi29 polymerase-SpyTag; comprising two Phi29 polymerase domains), with an approximate molecular weight of 147.974 kDa, was generated based on the protein coupling between SpyCatcher:SpyTag. (FIG. 10C, lane 3).

Data on one molecule can be found in patent US20240209330A1 (10X GENOMICS, published 2024).

B1: recombinant Phi29 polymerase-SpyCatcher fusion protein (enzyme)
chain: KHMPRKMYSCDFETTTKVEDCRVWAYGYMNIEDHSEYKIGNSLDEFMAWVLKVQADLYFHNLKFDGAFIINWLERNGFKWSADGLPNTYNTIISRMGQWYMIDICLGYKGKRKIHTVIYDSLKKLPFPVKKIAKDFKLTVLKGDIDYHKERPVGYKITPEEYAYIKNDIQIIAEALLIQFKQGLDRMTAGSDSLKGFKDIITTKKFKKVFPTLSLGLDKEVRYAYRGGFTWLNDRFKEKEIGEGMVFDVNSLYPAQMYSRLLPYGEPIVFEGKYVWDEDYPLHIQHIRCEFELKEGYIPTIQIKRSRFYKGNEYLKSSGGEIADLWLSNVDLELMKEHYDLYNVEYISGLKFKATTGLFKDFIDKWTYIKTTSEGAIKQLAKLMLNSLYGKFASNPDVTGKVPYLKENGALGFRLGEEETKDPVYTPMGVFITAWARYTTITAAQACYDRIIYCDTDSIHLTGTEIPDVIKDIVDPKKLGYWAHESTFKRAKYLRQKTYIQDIYMKEVDGKLVEGSPDDYTDIKFSVKCAGMTDKIKKEVTFENFKVGFSRKMKPKPVQVPGGVVLVDDTFTIKGGSGGSVTTLSGLSGEQGPSGDMTTEEDSATHIKFSKRDEDGRELAGATMELRDSSGKTISTWISDGHVKDFYLYPGKYTFVETAAPDGYEVATPIEFTVNEDGQVTVDGEATEGDAHT
notes: Expressed in E. coli with an amino terminal polyhistidine/SUMO tag (N-His/SUMO); The tag was cleaved with ULP1; also called N-His/SUMO Phi29 polymerase-SpyCatcher fusion protein; Phi29 with K-linker-SpyCatcher003
In the case of B1, the binding result is “binds”.
